{"source": "patent US20090068174A1", "about": "“THERAPEUTIC ALKALINE PROTEASE COMPOSITIONS AND USE IN FACILITATING THE TRANSPORT OF AGENTS ACROSS THE GASTROINTESTINAL MUCOSAL LINING” (Kansas University Medical Center Research Institute, Inc., priority 2007, published 2009)", "molecules": {"B1": {"name": "Alkaline Protease: Aspergillus oryzae alkaline protease (oryzin), SEQ ID NO: 2, purified from the protease powder of Example 1 (protein, listed as Aspergillus oryzae)", "chain": "MQSIKRTLLLLGAILPAVLGAPVQETRRAAEKLPGKYIVTFKPGIDEAKIQEHTTWATNIHQRSLERRGATGGDLPVGIERNYKINKFAAYAGSFDDATIEEIRKNEDVAYVEEDQIYYLDGLTTQKSAPWGLGSISHKGQQSTDYIYDTSAGEGTYAYVVDSGVNVDHEEFEGRASKAYNAAGGQHVDSIGHGTHVSGTIAGKTYGIAKKASILSVKVFQGESSSTSVILDGFNWAANDIVSKKRTSKAAINMSLGGGYSKAFNDAVENAFEQGVLSVVAAGNENSDAGQTSPASAPDAITVAAIQKSNNRASFSNFGKVVDVFAPGQDILSAWIGSSSATNTISGTSMATPHIVGLSLYLAALENLDGPAAVTKRIKELATKDWKDVKGSPNLLAYNGNA"}}, "key": {"mouse recombinant TNF-α": {"molecular_target": "T1, mouse recombinant TNF-α (Mus musculus, UniProt P06804)", "T1 sequence (P06804 80-235 limits assumed)": "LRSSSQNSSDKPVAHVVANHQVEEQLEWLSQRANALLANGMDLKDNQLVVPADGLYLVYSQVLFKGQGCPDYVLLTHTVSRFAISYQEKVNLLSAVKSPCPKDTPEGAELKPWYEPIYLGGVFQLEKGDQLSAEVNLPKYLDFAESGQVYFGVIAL", "assay": "Cleavage of mouse TNF-α (Western blotting)", "assay_type": "biochemical", "conditions": "100 ng cytokine, 37° C. overnight, Western blot", "experimental": "(§1) Degradation of mouse recombinant TNF-α: (A) or IFN-γ (B) following treatment with: the protease powder prepared according to Example 1 (preparation), purified alkaline protease (AP); Pseudomonas elastase (E); and buffered-treated control (C). The cytokines (100 ng each) were incubated at 37° C. overnight with the indicated quantities (ng) of enzymes, and then analyzed by Western blotting for evidence of degradation. A scan of AP-treated mouse TNF-α (left-hand Western blot) showing the decreasing density of the top band as a function of alkaline protease concentration (C).\n(§2) Because the anti-TNF-α used here was specific for an epitope located in the carboxyl terminus of the cytokine, the pattern of cleavage is most consistent with attack at the amino terminus of TNF-α (e.g., there is a loss of molecular mass without a loss of the epitope recognized by the antibody)."}, "TNBS-induced colitis": {"system": "TNBS-induced colitis", "assay": "Induction of IBD in the hapten (TNBS)-induced SJL mouse model", "assay_type": "in vivo", "conditions": "SJL mice, i.p. and oral treatment", "experimental": "This example uses the TNBS model in the SJL mouse, a susceptible strain, comparing systemic versus oral administration of the alkaline protease as a prophylactic treatment of blocking the induction of gastrointestinal inflammation. Endpoint measurements can include histopathological evaluation and scoring of the lesions as known in the art.\nSJL strain mice (Jackson Labs) can be lightly anesthetized, and a solution of 25-50 μg of TNBS in 100 μl 50% ethanol can be administered by enema. Initial studies can determine whether sufficient pathology is induced by a single injection or whether the two challenge protocol (day 0 and day 7) is preferable. Response parameters include: (a) body weight measured on days 0, 2, 4, 6, 8, and 10; (b) pathological scoring of lesions in the intestine on day 10 (0=no inflam; 1=low level leukocyte infiltration; 2=medium infiltration, vascular intensity with some wall thickening; 3=high level infiltration, vascular response and thickening; 4=transmural infiltration, loss of goblet cells); (c) and immunohistological staining for activated caspase-3 and TNF-α. Wall thickening can be measured, for instance, as described by Dohi et al. (1999) “Hapten-induced colitis is associated with colonic patch hypertrophy and T helper cell 2-type responses.” J Expt Med 189: 1169-79, which is incorporated by reference. […]"}, "mouse recombinant IFN-γ": {"molecular_target": "T2, mouse recombinant IFN-γ (Mus musculus, UniProt P01580)", "T2 sequence (P01580 23-155)": "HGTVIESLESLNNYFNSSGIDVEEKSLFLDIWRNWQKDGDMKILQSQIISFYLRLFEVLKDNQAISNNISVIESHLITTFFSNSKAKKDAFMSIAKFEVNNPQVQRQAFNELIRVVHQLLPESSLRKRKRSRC", "assay": "Cleavage of mouse IFN-γ (Western blotting)", "assay_type": "biochemical", "conditions": "100 ng cytokine, 37° C. overnight, Western blot", "experimental": "as §1, §2"}, "[1]": {"assay": "Protease stability and solubility in water", "assay_type": "physicochemical", "experimental": "For determining the stability of the alkaline protease in drinking water over 0-4 days, proteases can be dissolved in autoclaved tap water at a concentration of 1 mg/ml and stored at either 25° C. or 4° C. At regular intervals (every 3 hours at 0-18 hours, every 8 hours at 18-24 hours, and every 12 hours at 24-96 hours), aliquots can be ascetically removed and tested for their ability to cleave protamine sulfate using a modification of the ninhydrin assay of Rosen. Results are expressed as % residual activity measured immediately after preparation of the protease solutions."}}}
{"molecule": "B1", "values": [{"measurement": "Cleavage of mouse TNF-α", "setting": "mouse recombinant TNF-α", "result": "evidenced the same substrate specificity"}, {"measurement": "Weight loss and IBD induction by TNBS", "setting": "TNBS-induced colitis", "result": "can prevent and/or lessen weight loss and IBD induction by TNBS"}, {"measurement": "Cleavage of mouse IFN-γ", "setting": "mouse recombinant IFN-γ", "result": "partial degrades mouse IFN-γ"}, {"measurement": "Cleavage of mouse IFN-γ", "setting": "mouse recombinant IFN-γ; listed as alkaline protease (AP)", "result": "evidenced the same substrate specificity"}, {"measurement": "Solubility in water", "setting": "[1]", "result": "soluble in water"}, {"measurement": "Stability of catalytic activity on storage", "setting": "[1]; 4° C. storage", "result": "stable with 4 °C storage for several weeks"}, {"measurement": "Retention of activity in water", "setting": "[1]; for 2 days", "result": "> 80", "unit": "%"}]}
